Measured values taken from patent US12559559B2, “Targeting Galectin-9 as a therapeutic strategy for T-cell exhaustion in T-cell acute lymphoblastic leukemia” (DANA-FARBER CANCER INSTITUTE, INC., priority 2019, dated 2026).

Biological target: T1, Galectin-9 (LGALS9) (Homo sapiens, UniProt O00182)
T1 construct: cultured from normal donors with and without T-ALL supernatant (containing LGALS9) for three days; endogenous in cells; host or cells: DND-41 T-ALL cell line (culture supernatant)
Test: T-cell exhaustion functional assay / HAVCR2-LGALS9 pathway blocking in activated CD8+ T-cells (qRT-PCR)
Type: cell-based
Conditions: recombinant Galectin-9 2.5 μg/mL added to the culture, 72 hours
Procedure: HAVCR2 mRNA expression in activated CD8+ T-cells cultured with T-ALL supernatant (from DND-41 cells; orange) or control media (blue), in the presence/absence of anti-human Galectin-9 (10 μg/mL) or recombinant Galectin-9 (2.5 μg/mL). n.s. P>0.05, **P≤0.01 and ***P≤0.001, based on 3 technical replicates, using two-sided t-test.
T-cells were isolated using Easy Sep Human T-cell Enrichment kit (StemCell Technologies), activated and expanded with Dynabeads Human T-activator CD3/CD28 (ThermoFisher Scientific) in X-VIVO 15 (Lonza) with 5% of human AB serum, and 50 U/mL IL-2 (Miltenyi Biotech). For T-cell exhaustion functional assays, activated CD8′ T-cells were cultured in X-VIVO 15 media or in supernatant media of DND-41 cell line, with 50 U/mL IL-2. For HAVCR2-LSGAL9 pathway blocking experiments, activated CD8^+ T-cells were cultured in X-VIVO 15 media or in supernatant media of DND-41 T-ALL supplemented with anti-human Galectin-9 10 μg/mL (Thermo Fisher Scientific) or recombinant Galectin-9 2.5 μg/mL (R&D systems) for 72 hours.
RNA was isolated using RNeasy Mini Kit (Qiagen), followed by reverse transcription with SuperScript III Reverse Transcriptase (ThermoFisher Scientific). Gene expression was quantified by quantitative real-time PCR using Power SYBR Green PCR Master Mix (Applied Biosystems, Vial instrument). […]

T1 sequence (O00182 whole entry): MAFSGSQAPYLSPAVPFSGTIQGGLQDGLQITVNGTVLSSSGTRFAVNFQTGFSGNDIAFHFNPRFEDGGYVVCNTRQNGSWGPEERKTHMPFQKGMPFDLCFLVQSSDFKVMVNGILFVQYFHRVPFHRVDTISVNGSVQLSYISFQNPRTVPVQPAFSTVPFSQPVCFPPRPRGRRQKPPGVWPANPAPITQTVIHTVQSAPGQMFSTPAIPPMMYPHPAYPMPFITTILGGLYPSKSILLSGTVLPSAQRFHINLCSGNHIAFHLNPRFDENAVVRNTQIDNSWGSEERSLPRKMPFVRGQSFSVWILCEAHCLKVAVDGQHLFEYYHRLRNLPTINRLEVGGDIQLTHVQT

Exhaustion marker expression in activated CD8+ T-cells: upregulation of exhaustion markers
B1: recombinant soluble LGALS9: recombinant Galectin-9 (R&D systems), used at 2.5 μg/mL (protein)
chain: MAFSGSQAPYLSPAVPFSGTIQGGLQDGLQITVNGTVLSSSGTRFAVNFQTGFSGNDIAFHFNPRFEDGGYVVCNTRQNGSWGPEERKTHMPFQKGMPFDLCFLVQSSDFKVMVNGILFVQYFHRVPFHRVDTISVNGSVQLSYISFQNPRTVPVQPAFSTVPFSQPVCFPPRPRGRRQKTQTVIHTVQSAPGQMFSTPAIPPMMYPHPAYPMPFITTILGGLYPSKSILLSGTVLPSAQRFHINLCSGNHIAFHLNPRFDENAVVRNTQIDNSWGSEERSLPRKMPFVRGQSFSVWILCEAHCLKVAVDGQHLFEYYHRLRNLPTINRLEVGGDIQLTHVQT
